Measured values: article PMC3145977, “Thermostabilisation of an Agonist-Bound Conformation of the Human Adenosine A2A Receptor” (Journal of Molecular Biology, 2011)
Where “and” joins values, the source holds several entries; their conditions need not be identical. Identical values can stand only once. Like-named read-outs stand apart in the source and are kept apart here. Marks after values point to notes of the source that are not given here. Values belong to the molecule of their own block, whether it stands above or below them.

Tests used:
[1] = biological target: A2AR-GL26 (L48A-Q89A-T65A-A54L) (Homo sapiens, UniProt P29274, A54L/L48A/Q89A/T65A)
[^3H]NECA-bound A2AR [2] = Thermostability assay of detergent-solubilised receptor with [3H]NECA bound (ligand plus format); type: physicochemical, human; details: for Improvement in stability compared to WT based on t1/2 (decrease in rate of unfolding): from Fig. 2c
Method: (§1) […]. After solubilisation in DDM, A2AR was bound to Ni^2+-NTA resin, washed to reduce the DDM concentration and then eluted (see Methods). […]. An aliquot of E. coli cells (14 mL) was thawed on ice and resupended in 500 μL of buffer A [50 mM Tris–HCl (pH 7.4), 0.4 M NaCl, 250 μg/mL lysozyme (Sigma) and 1 mg/mL DNase I (Sigma), supplemented with complete ethylenediaminetetraacetic acid (EDTA)-free Protease inhibitor cocktail (Roche)] and incubated for 1 h at 4 °C. Samples were then sonicated for 1 min at 4 °C using a cup-horn sonicator. The receptors were solubilised by adding 1% DDM and incubated for 1 h at 4 °C. Insoluble material was removed by centrifugation (5 min, 13,000g, 4 °C). The solubilised receptors were partially purified with Ni-NTA agarose (Qiagen). Agarose beads (300 μL) pre-equilibrated in buffer A were added to 700 μL of solubilised receptor. […].
(§2) The sample was incubated for 45 min at 4 °C, then 30 min at the specified temperature and then 30 min at 4 °C. Receptor-bound and free radioligands were separated as previously described on mini gel-filtration columns.[26] Receptor-bound ligands were transferred to a 96-well plate (PerkinElmer) and mixed with 200 μL of Optiphase supermix (PerkinElmer). The bound ^3H-labeled ligand was determined using a 1450 Microbeta Trilux counter (1 min per sample).
(§3) For all the thermostabilisation studies carried out in our laboratory, the apparent Tm is the temperature for which 50% of the solubilised receptor remains folded after 30 min of incubation. The rate constant of the protein denaturation is a function of the temperature, and consequently, thermal denaturation of a protein can be compared to a chemical reaction for which the rate of the reaction is dependant on the temperature. Arrhenius established that any chemical reaction is temperature dependant. […]. The reference measurement representing the total binding activity of the sample A0 was considered to be measured at 4 °C. From the graphical representation t = Log10(t1/2) (Fig. 2c), we could extract a half-life for each construct at any temperature to define the improvement in stability of the various mutants compared to WT A2AR.

[^3H]ZM241385-bound A2AR [3] = biological target: T1, [^3H]ZM241385-bound A2AR (Homo sapiens, UniProt P29274); test: Thermostability assay of detergent-solubilised receptor with [3H]ZM241385 bound; type: physicochemical; details: identical conditions; DDM
T1 construct: The library of Ala/Leu scan mutants in the receptor A2aR-(2–316) was expressed from plasmid pRG/III-hs-MBP in E. coli strain DH5α; made in house; host or cells: Escherichia coli DH5α
Method: (§4) An aliquot of E. coli cells (14 mL) was thawed on ice and resupended in 500 μL of buffer A [50 mM Tris–HCl (pH 7.4), 0.4 M NaCl, 250 μg/mL lysozyme (Sigma) and 1 mg/mL DNase I (Sigma), supplemented with complete ethylenediaminetetraacetic acid (EDTA)-free Protease inhibitor cocktail (Roche)] and incubated for 1 h at 4 °C. Samples were then sonicated for 1 min at 4 °C using a cup-horn sonicator. The receptors were solubilised by adding 1% DDM and incubated for 1 h at 4 °C. Insoluble material was removed by centrifugation (5 min, 13,000g, 4 °C). The solubilised receptors were partially purified with Ni-NTA agarose (Qiagen). Agarose beads (300 μL) pre-equilibrated in buffer A were added to 700 μL of solubilised receptor. […].
as §2

[^3H]ZM241385-bound A2AR [4] = as above; type: physicochemical, human
Method: as §4, §2

[^3H]NECA-bound A2AR [5] = biological target: T2, [^3H]NECA-bound A2AR (Homo sapiens, UniProt P29274); parameters: method as in PMID 18664584; details: solubilised in DM; cited from earlier work
T2 construct: The library of Ala/Leu scan mutants in the receptor A2aR-(2–316) was expressed from plasmid pRG/III-hs-MBP in E. coli strain DH5α; made in house; host or cells: Escherichia coli DH5α

[^3H]NECA-bound A2AR [6] = biological target: T3, [^3H]NECA-bound A2AR (Homo sapiens, UniProt P29274, L48A/Q89A/T65A); test: Thermostability assay of detergent-solubilised receptor with [3H]NECA bound (ligand plus format); type: physicochemical; details: [3H]NECA bound
T3 construct: The library of Ala/Leu scan mutants in the receptor A2aR-(2–316) was expressed from plasmid pRG/III-hs-MBP in E. coli strain DH5α; made in house; host or cells: Escherichia coli DH5α
Method: as §1, §2, §3

T1 sequence (P29274 2-316): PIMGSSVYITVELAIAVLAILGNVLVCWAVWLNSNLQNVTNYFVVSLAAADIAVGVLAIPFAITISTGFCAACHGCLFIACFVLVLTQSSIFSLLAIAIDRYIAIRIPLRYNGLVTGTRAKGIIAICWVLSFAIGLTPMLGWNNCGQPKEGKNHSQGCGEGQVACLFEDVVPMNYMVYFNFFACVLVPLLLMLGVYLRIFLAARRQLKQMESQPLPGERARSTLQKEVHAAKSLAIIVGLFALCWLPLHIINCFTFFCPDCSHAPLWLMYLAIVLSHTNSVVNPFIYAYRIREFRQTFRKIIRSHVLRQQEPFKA
T2 sequence (P29274 2-316): as above
Sequence of A2AR-GL26 (L48A-Q89A-T65A-A54L) (P29274 whole entry L48A/A54L/T65A/Q89A): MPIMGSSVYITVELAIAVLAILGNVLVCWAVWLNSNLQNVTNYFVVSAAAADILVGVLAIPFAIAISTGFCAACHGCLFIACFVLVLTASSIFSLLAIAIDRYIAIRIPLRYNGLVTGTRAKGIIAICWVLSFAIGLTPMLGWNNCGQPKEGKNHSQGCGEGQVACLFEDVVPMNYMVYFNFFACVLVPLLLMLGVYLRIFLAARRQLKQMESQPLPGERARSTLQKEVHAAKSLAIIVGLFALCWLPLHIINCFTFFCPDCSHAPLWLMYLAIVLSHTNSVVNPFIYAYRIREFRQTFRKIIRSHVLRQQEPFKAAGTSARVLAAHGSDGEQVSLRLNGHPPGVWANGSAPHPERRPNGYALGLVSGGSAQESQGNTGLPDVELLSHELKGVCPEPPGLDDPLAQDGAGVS

Molecule: Nc1nc2ccc(Cl)cc2c2nc(-c3ccco3)nn12 [CGS15943]
Reduction of binding affinity versus WT A2AR [1]: 320 fold

Molecule: WT A2AR: wild-type human adenosine A2A receptor [reference compound]
Apparent Tm in DDM, Final values ([^3H]NECA-bound A2AR [2]; [3H]NECA bound, 0.025% DDM, replicate experiments): 28.6 ± 0.2 °C and 28.6 ± 0.2 (n = 8) °C
Apparent Tm, Agonist [^3H]NECA ([^3H]NECA-bound A2AR [2]; [3H]NECA bound, DDM, 30 min heating, single thermostability curve, estimated error ± 0.5 °C): 28.5 °C
Stability of [3H]ZM241385-bound versus [3H]NECA-bound A2AR ([^3H]ZM241385-bound A2AR [3]): 3.5 °C
Apparent Tm, Antagonist [^3H]ZM241385 ([^3H]ZM241385-bound A2AR [4]; [3H]ZM241385 bound, DDM, 30 min heating, single thermostability curve): 32.0 ± 0.1 °C
Apparent Tm, Antagonist [^3H]ZM241385 ([^3H]ZM241385-bound A2AR [4]; [3H]ZM241385 bound, DDM, 30 min heating, single thermostability curve, listed as WT): 32 °C
Apparent Tm in DM ([^3H]NECA-bound A2AR [5]): 23 °C

Binding of [^3H]ZM241385 ([^3H]ZM241385-bound A2AR [4]; at 4 °C, 100 nM radioligand): did not bind
B1: GL0: A2AR point mutant L48A, renamed GL0 (protein, UniProt P29274 1-412, looked up, variant L48A)
Adenosine receptor A2a: MPIMGSSVYITVELAIAVLAILGNVLVCWAVWLNSNLQNVTNYFVVSAAAADIAVGVLAIPFAITISTGFCAACHGCLFIACFVLVLTQSSIFSLLAIAIDRYIAIRIPLRYNGLVTGTRAKGIIAICWVLSFAIGLTPMLGWNNCGQPKEGKNHSQGCGEGQVACLFEDVVPMNYMVYFNFFACVLVPLLLMLGVYLRIFLAARRQLKQMESQPLPGERARSTLQKEVHAAKSLAIIVGLFALCWLPLHIINCFTFFCPDCSHAPLWLMYLAIVLSHTNSVVNPFIYAYRIREFRQTFRKIIRSHVLRQQEPFKAAGTSARVLAAHGSDGEQVSLRLNGHPPGVWANGSAPHPERRPNGYALGLVSGGSAQESQGNTGLPDVELLSHELKGVCPEPPGLDDPLAQDGAGVS
Apparent Tm in DDM, Single measurement ([^3H]NECA-bound A2AR [2]): 42.5 °C
Improvement in stability (apparent Tm) of NECA-bound A2AR versus WT ([^3H]NECA-bound A2AR [2]; [3H]NECA bound, DDM): 13.6 °C
Improvement in stability compared to WT based on t1/2 (decrease in rate of unfolding) ([^3H]NECA-bound A2AR [2]; [3H]NECA bound, DDM): 49 fold
Apparent Tm, Antagonist [^3H]ZM241385 ([^3H]ZM241385-bound A2AR [4]): 0 ^b °C

B2: V282A: A2AR point mutant V282A (protein, UniProt P29274 1-412, looked up, variant V282A)
Adenosine receptor A2a: MPIMGSSVYITVELAIAVLAILGNVLVCWAVWLNSNLQNVTNYFVVSLAAADIAVGVLAIPFAITISTGFCAACHGCLFIACFVLVLTQSSIFSLLAIAIDRYIAIRIPLRYNGLVTGTRAKGIIAICWVLSFAIGLTPMLGWNNCGQPKEGKNHSQGCGEGQVACLFEDVVPMNYMVYFNFFACVLVPLLLMLGVYLRIFLAARRQLKQMESQPLPGERARSTLQKEVHAAKSLAIIVGLFALCWLPLHIINCFTFFCPDCSHAPLWLMYLAIVLSHTNSAVNPFIYAYRIREFRQTFRKIIRSHVLRQQEPFKAAGTSARVLAAHGSDGEQVSLRLNGHPPGVWANGSAPHPERRPNGYALGLVSGGSAQESQGNTGLPDVELLSHELKGVCPEPPGLDDPLAQDGAGVS
Apparent Tm, Antagonist [^3H]ZM241385 ([^3H]ZM241385-bound A2AR [4]): 33 °C
ΔTm, Antagonist [^3H]ZM241385 ([^3H]ZM241385-bound A2AR [4]): + 1 °C

B3: S47A: A2AR point mutant S47A (protein, UniProt P29274 1-412, looked up, variant S47A)
Adenosine receptor A2a: MPIMGSSVYITVELAIAVLAILGNVLVCWAVWLNSNLQNVTNYFVVALAAADIAVGVLAIPFAITISTGFCAACHGCLFIACFVLVLTQSSIFSLLAIAIDRYIAIRIPLRYNGLVTGTRAKGIIAICWVLSFAIGLTPMLGWNNCGQPKEGKNHSQGCGEGQVACLFEDVVPMNYMVYFNFFACVLVPLLLMLGVYLRIFLAARRQLKQMESQPLPGERARSTLQKEVHAAKSLAIIVGLFALCWLPLHIINCFTFFCPDCSHAPLWLMYLAIVLSHTNSVVNPFIYAYRIREFRQTFRKIIRSHVLRQQEPFKAAGTSARVLAAHGSDGEQVSLRLNGHPPGVWANGSAPHPERRPNGYALGLVSGGSAQESQGNTGLPDVELLSHELKGVCPEPPGLDDPLAQDGAGVS
Apparent Tm, Antagonist [^3H]ZM241385 ([^3H]ZM241385-bound A2AR [4]): 25.5 °C
ΔTm, Antagonist [^3H]ZM241385 ([^3H]ZM241385-bound A2AR [4]): − 6.5 °C

B4: A50L: A2AR point mutant A50L (protein, UniProt P29274 1-412, looked up, variant A50L)
Adenosine receptor A2a: MPIMGSSVYITVELAIAVLAILGNVLVCWAVWLNSNLQNVTNYFVVSLALADIAVGVLAIPFAITISTGFCAACHGCLFIACFVLVLTQSSIFSLLAIAIDRYIAIRIPLRYNGLVTGTRAKGIIAICWVLSFAIGLTPMLGWNNCGQPKEGKNHSQGCGEGQVACLFEDVVPMNYMVYFNFFACVLVPLLLMLGVYLRIFLAARRQLKQMESQPLPGERARSTLQKEVHAAKSLAIIVGLFALCWLPLHIINCFTFFCPDCSHAPLWLMYLAIVLSHTNSVVNPFIYAYRIREFRQTFRKIIRSHVLRQQEPFKAAGTSARVLAAHGSDGEQVSLRLNGHPPGVWANGSAPHPERRPNGYALGLVSGGSAQESQGNTGLPDVELLSHELKGVCPEPPGLDDPLAQDGAGVS
Apparent Tm, Antagonist [^3H]ZM241385 ([^3H]ZM241385-bound A2AR [4]): 38.5 °C
ΔTm, Antagonist [^3H]ZM241385 ([^3H]ZM241385-bound A2AR [4]): + 6.5 °C

B5: GL23: A2AR mutant L48A-Q89A-T65A (protein, UniProt P29274 1-412, looked up, variant L48A Q89A T65A)
Adenosine receptor A2a: MPIMGSSVYITVELAIAVLAILGNVLVCWAVWLNSNLQNVTNYFVVSAAAADIAVGVLAIPFAIAISTGFCAACHGCLFIACFVLVLTASSIFSLLAIAIDRYIAIRIPLRYNGLVTGTRAKGIIAICWVLSFAIGLTPMLGWNNCGQPKEGKNHSQGCGEGQVACLFEDVVPMNYMVYFNFFACVLVPLLLMLGVYLRIFLAARRQLKQMESQPLPGERARSTLQKEVHAAKSLAIIVGLFALCWLPLHIINCFTFFCPDCSHAPLWLMYLAIVLSHTNSVVNPFIYAYRIREFRQTFRKIIRSHVLRQQEPFKAAGTSARVLAAHGSDGEQVSLRLNGHPPGVWANGSAPHPERRPNGYALGLVSGGSAQESQGNTGLPDVELLSHELKGVCPEPPGLDDPLAQDGAGVS
Decrease in stability in DM compared with DDM ([^3H]NECA-bound A2AR [6]): 7.7 °C
Apparent Tm in DDM, Single measurement ([^3H]NECA-bound A2AR [2]): 50 °C
Improvement in stability compared to WT based on t1/2 (decrease in rate of unfolding) ([^3H]NECA-bound A2AR [2]; [3H]NECA bound, DDM): 226 fold
Improvement in stability compared to WT based on t1/2 (decrease in rate of unfolding) ([^3H]NECA-bound A2AR [2]; [3H]NECA bound, DDM, listed as A2AR-GL23): about 230 fold
